Stoichiometry N (STARD1 per 14-3-3 subunit (2:2)), stoichiometry N and Kd data for 1 molecule are collected here from publication doi:10.1101/2020.04.14.040436.

A word on the stoichiometry N: it is a count of units in the complex or per binding partner. In general, Kd refers to the concentration at which binding is half-saturated.

The target in assay [1] is human 14-3-3ε devoid of the C-terminal flexible tail (14-3-3εΔC) (human). In words: SEC.
In assay [2] the target is 14-3-3ε/γ heterodimer (His6-tagged 14-3-3ε with untagged 14-3-3γ) (human) (UniProt P62258). In words: SPR. (SPR reads the build-up and loss of mass on a sensor chip optically.)
Assay [3] has as its target His6-tagged 14-3-3ε (human) (UniProt P62258). In words: SPR.

human 14-3-3ε devoid of the C-terminal flexible tail (14-3-3εΔC) (human), sequence (B3KY71 whole entry, stated change not applied): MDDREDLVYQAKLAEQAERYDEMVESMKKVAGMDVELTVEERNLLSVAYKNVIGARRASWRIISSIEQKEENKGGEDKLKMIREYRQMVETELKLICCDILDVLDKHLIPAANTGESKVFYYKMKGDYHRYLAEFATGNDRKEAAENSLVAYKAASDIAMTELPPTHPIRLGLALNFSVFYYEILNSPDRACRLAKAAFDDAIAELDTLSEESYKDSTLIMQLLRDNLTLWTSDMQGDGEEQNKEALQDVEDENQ

B1: STARD1_(46-285)-S56A/L59P phosphorylated at Ser57 and Ser195 (domain or fragment)
chain: STWINQVRRRASLPGSRLEETLYSDQELAYLQQGEEAMQKALGILSNQEGWKKESQQDNGDKVMSKVVPDVGKVFRLEVVVDQPMERLYEELVERMEAMGEWNPNVKEIKVLQKIGKDTFITHELAAEAAGNLVGPRDFVSVRCAKRRGSTCVLAGMATDFGNMPEQKGVIRAEHGPTCMVLHPLAGSPSKTKLTWLLSIDLKGWLPKSIINQVLSQTQVDFANHLRKRLESHPASEARC
modifications: phosphoserine at 57; phosphoserine at 195
In the case of B1, in assay [1], the stoichiometry N (STARD1 per 14-3-3 subunit (2:2)) came out at 1. In addition, the stoichiometry N in assay [1] (scale: STARD1 per 14-3-3 subunit) came out at 0.5. The Kd in assay [2] is 15 µM; in assay [3], 13 µM.
